Source: publication PMC5095914

What was measured:
[1] = biological target: YidC cysteine mutant labelled with Cy3 at position 454 (E. coli) (UniProt P25714); assay: other fluorescence titration; 60 nM Cy3-labelled YidC in 20 mM Hepes/KOH pH 7.5, 100 mM KCl, 10 mM MgOAc2, 5% glycerol, 0.1% DDM mixed 1:1 with 0.6 nM to 19.2 µM 70S ribosomes; 10 min at 20°C; fluorescence intensity on a Monolith NT.115; four repeats
[2] = biological target: xFOc (subunit c of the ATP synthase with cysteines C21 and C65), expressed in E. coli C43 membranes (E. coli) (UniProt P68699); assay: cross-linking; E. coli C43 membranes expressing xFOc oxidised with copper-1,10-phenanthroline (CuPh), with or without DTT; SDS-PAGE, western blotting with FOc antibody
[3] = biological target: xFOc (subunit c of the ATP synthase with cysteines C21 and C65), in vitro translated (E. coli) (UniProt P68699); assay: cross-linking; xFOc translated in vitro and inserted into proteoliposomes (large scale); mild oxidising conditions (lipids, atmospheric oxygen), no CuPh; non-reducing SDS-PAGE, phosphor imaging; c10-ring with HTL, SecYEG or without YidC, not with YidC alone

## 70S ribosomes (complex)
[1]
  Kd: 161 nM

## xFOc (subunit c of the ATP synthase with cysteines C21 and C65), expressed in E. coli C43 membranes (from UniProt P68699 1-79) (natural protein)
[2]
  stoichiometry N: 10

## xFOc (subunit c of the ATP synthase with cysteines C21 and C65), in vitro translated (from UniProt P68699 1-79) (natural protein)
[3]
  stoichiometry N: 10
